Measurements from patent US20180126013A1 (H LEE MOFFITT CANCER CENTER AND RESEARCH INSTITUTE, published 2018).
Square brackets hold non-standard residues; d marks the D form. Side chains are listed from the residue outwards. Ends that are not written are not given here. * marks the point of attachment. 1‑phenylbutyric acid = 1-phenylbutyric acid (N-terminal acyl cap); D‑di‑Glu = D-di-Glu linker between Lys side chain and DOTA; DOTA = O=C(O)CN1CCN(CC(=O)O)CCN(CC(=O)*)CCN(CC(=O)O)CC1; Ahx = NCCCCCC(=O)O

Experiments:
[1] = target: T1, melanocortin-1 receptor (MC1R) (UniProt Q01726 1-317, limits assumed); assay: TRF saturation binding with the Eu chelate on Hek293/MC1R cells; specific = total minus nonspecific (20x MC1RL-DOTA block)
T1 construct: whole, on cells; also called Hek293/MC1R cells; A375/MC1R cells
Procedure: The binding sequence is 1-Phenylbutyric acid-His(D)Phe-Arg-Trp-Gly-Lys(D-di-Glu-DOTA)-CONH₂. Eu is chelated into the conjugated DOTA for lanthanide-based binding assays but ²²⁵Ac, ⁶⁸Ga, or ¹¹¹In can also be chelated. […] 20×MC1Rl-DOTA was used for blocking. […] Data is the result of two repeats.
(§1) Time-resolved fluorescence (TRF) competition binding assays were performed to determine binding affinities of these DOTA conjugates (FIG. 2). The TRF method takes advantage of the long fluorescence lifetime of the lanthanide Europium and can detect less than one attomole in a multiwell plate sample. Hek293/MC1R cells (Hek293 cells engineered to over-express MC1R) were used for the binding assays. Saturation TRF binding assays were performed using versions of the compounds with chelated europium to determine specific and non-specific binding (FIG. 17-20).

[2] = target: T1, melanocortin-1 receptor (MC1R); assay: not stated in the sentence (binding affinity of the DOTA conjugate and its chelates)
[3] = target: T1, melanocortin-1 receptor (MC1R); assay: time-resolved fluorescence (TRF) competition binding assay on Hek293/MC1R cells
Procedure: as §1

[4] = target: T1, melanocortin-1 receptor (MC1R); assay: competitive binding assay (FIG. 2)
Procedure: as §1

T1 sequence (Q01726 whole entry): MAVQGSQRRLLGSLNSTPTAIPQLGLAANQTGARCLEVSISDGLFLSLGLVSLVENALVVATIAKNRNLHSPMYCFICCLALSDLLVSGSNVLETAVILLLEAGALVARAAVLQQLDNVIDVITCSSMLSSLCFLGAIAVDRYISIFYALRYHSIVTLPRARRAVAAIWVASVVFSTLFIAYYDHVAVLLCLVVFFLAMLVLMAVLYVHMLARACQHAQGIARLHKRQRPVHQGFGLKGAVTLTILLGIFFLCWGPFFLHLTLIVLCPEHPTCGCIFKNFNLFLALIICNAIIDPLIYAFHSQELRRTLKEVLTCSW

Binder	Kd [1] [nM]	Ki [3] [nM]	also measured
{1‑phenylbutyric acid}-H[dF]RWGK([D‑di‑Glu-DOTA])-NH2 (also: 152Eu chelate, also called 1-Phenylbutyric acid-His(D)Phe-Arg-Trp-Gly-Lys(D-di-Glu-DOTA)-CONH2, Eu chelate) [MC1RL linked through D-di-Glu to DOTA:^152Eu]	0.19	–	–
{1‑phenylbutyric acid}-H[dF]RWGK([Ahx-DOTA])-NH2 (also: 152Eu chelate, also called 1-Phenylbutyric acid-His(D)Phe-Arg-Trp-Gly-Lys(Ahx-DOTA)-CONH2, Eu chelate) [MC1RL linked through aminohexanoic acid (Ahx) to DOTA:^152Eu]	0.88	–	–
H[dF]RWGK([Ahx-DOTA])-NH2 (not fully specified (N-terminus), also called MC1RL-DOTA; DOTA labeled conjugate of the MC1R specific ligand) [DOTA-MC1RL (unlabeled)]	–	0.24	Ki [2]: 0.3 nM

Continued, in another order:

Kd [1] [nM]	Ki [3] [nM]	Binder	also measured
–	0.34	H[dF]RWGK([Ahx-DOTA])-NH2 (not fully specified (N-terminus); also: nonradioactive 67/69Ga chelated by DOTA, Nonradioactive surrogate of the ^68Ga PET agent) [^67/69Ga-DOTA-MC1RL]	–
–	0.23	H[dF]RWGK([Ahx-DOTA])-NH2 (not fully specified (N-terminus); also: 139La chelated by DOTA, Nonradioactive surrogate of ^225Ac-DOTA-MC1RL; also called cold agent) [^139La-DOTA-MC1RL]	Ki [4]: 0.2 nM
0.69	–	{1‑phenylbutyric acid}-H[dF]RWGK(DOTA)-NH2 (also: 152Eu chelate, also called 1-Phenylbutyric acid-His(D)Phe-Arg-Trp-Gly-Lys(DOTA)-CONH2, Eu chelate) [MC1RL linked to DOTA:^152Eu]	–
